According to patent US20160185857A1 (published 2016):

Target: T1, recombinant soluble human FcγRIIB (UniProt P31994 43-217)
T1 chain: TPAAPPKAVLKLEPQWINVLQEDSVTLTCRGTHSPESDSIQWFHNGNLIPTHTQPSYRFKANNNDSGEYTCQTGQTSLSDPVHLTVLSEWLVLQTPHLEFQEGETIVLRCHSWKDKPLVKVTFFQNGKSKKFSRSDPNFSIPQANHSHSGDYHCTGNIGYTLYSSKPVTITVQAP
Assay: SPR

B1: chGB3_N297A (chimeric GB3, prior art antibody of WO 2005/051999, N297A format) (antibody, V domains shown)
VH: VQLQQSGPELVKPGASVKISCKASGYTFTDYYIYWVKQWPGQGLEWIGWIFPGTGNTYYNENFKDKATLTIDRSSSTAYMLLGSLTSEDSAVYFCYGPFAYWGQ
VL: RIQLTQSPSSLSASLGERVSLTCRASQEISGYLSWLQQKPDGTIKRLIYATSALDSGVPKRFSGSGSGSNYSLTISSLESEDFADYYCLQYANYPYTFGGGTKL
B1 was tested. Which koff did it give?
Its koff is 0.01 s⁻¹.

B2: ch8A6_wt (antibody)
chain 1: EVQLVESGGDLVQPGRSLRLSCAASGFTFSDYYMAWVRQAPKKGLEWVASISSDGSNTYYGDSVKGRFTISRDNTRSNLYLQMNSLRSEDTATYYCARPGDYWGQGVMVTVSS
chain 2: NIVMTQSPTSMFISVGDRVTMNCKASQNVGTYVDWFQQKTGQSPTLLIFGASNRYTGVPDRFTGSGSGTDFTLSISNMQAEDLAVYYCLQYNYHPYTFGPGTTLELKR
For B2, which koff is on record?
The koff was 0.00049 s⁻¹.
